Measurements as given in patent publication US20240254245A1 (JIANGSU HENGRUI PHARMACEUTICALS, published 2024).

Key:
[1] = molecular target: T1, human NGF protein (Sino biological, 11050-HNAC) (human, UniProt P01138 122-241); assay: SPR (Biacore), antibody captured on Protein A chip, antigen in flow, 1:1 fit
T1 construct: also called Human (monkey) NGF
Protocol: Reaction signals were detected in real time by using Biacore, and binding and dissociation curves were obtained. After dissociation was complete in each cycle, the biochip was washed and regenerated with a glycine-hydrochloric acid regeneration solution (GE, BR-1003-54) having a pH of 1.5. Fitting was performed on the experimental data using BIAevaluation version 4.1 software with a 1:1 model, and affinity values were obtained.

[2] = molecular target: T1, human NGF protein (Sino biological, …); assay: cell-based or functional assay
[3] = molecular target: T1, human NGF protein (Sino biological, …); assay: blocking ELISA: antibody titrated with fixed biotin-human NGF, on coated human TrkA
Protocol: The plate was incubated at 37° C. for 1.5 h. After the incubation was complete, the plate was washed 3 times with PBST. Streptavidin-HRP (Invitrogen, 434323, diluted at 1:4000) was added at 100 μL/well, and the plate was incubated at 37° C. for 1 h. The supernatant was removed. After the plate was washed 3 times with PBST, TMB chromogenic substrate (KPL, 5120-0077) was added at 100 μL/well, and the plate was incubated at room temperature for 10 to 15 min. […] The absorbance values at 450 nm were taken using a microplate reader.

[4] = molecular target: T2, human RANKL protein (Sino Biological, 11682-HNCH) (human, UniProt O14788 136-317, limits assumed); assay: ELISA on coated antigen (1 ug/mL), anti-human Fc-HRP
T2 construct: Bought protein
T2 sequence (looked up): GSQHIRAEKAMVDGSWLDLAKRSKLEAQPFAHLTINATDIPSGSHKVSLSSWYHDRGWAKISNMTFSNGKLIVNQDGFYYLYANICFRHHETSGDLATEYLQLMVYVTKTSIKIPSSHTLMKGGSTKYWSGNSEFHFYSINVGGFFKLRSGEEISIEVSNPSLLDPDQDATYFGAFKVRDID
Protocol: (§1) The antigen was diluted to 1 μg/mL with a pH 7.4 PBS buffer (BasalMedia, B320) and added to a 96-well microplate (Coming, 9018) at 100 μL/well, and the plate was incubated overnight at 4° C. After the liquid was discarded, a 5% skim milk (BD, 232100) blocking solution diluted with PBS was added at 300 μL/well, and the plate was incubated at 37° C. for 2 h for blocking. After the blocking was complete, the blocking solution was discarded, and the plate was washed 3 times with a PBST buffer (pH 7.4 PBS containing 0.1% tween-20). Then a bispecific antibody diluted with a sample diluent (pH 7.4 containing 1% BSA) to different concentrations was added at 100 μL/well, and the plate was incubated in a 37° C. incubator for 1 h. After the incubation was complete, the plate was washed 3 times with PBST. An HRP-labeled anti-human Fc secondary antibody (Abcam, ab97225) diluted with the sample diluent was added at 100 μL/well, and the plate was incubated at 37° C. for 1 h. After the plate was washed 3 times with PBST, TMB chromogenic substrate (KPL, 5120-0077) was added at 100 μL/well, and the plate was incubated at room temperature for 10 to 15 min. 50 μL of 1 M H₂SO₄ was added to each well to stop the reactions. The absorbance values at 450 nm were taken using a microplate reader, and the EC50 values for binding of the bispecific antibody to the antigens were calculated.

[5] = molecular target: T3, murine NGF (Sino Biological, 50385-MNAC) (murine, UniProt P01139 122-241); assay: as above
T3 construct: Bought protein
T3 sequence (P01139 122-241 limits assumed): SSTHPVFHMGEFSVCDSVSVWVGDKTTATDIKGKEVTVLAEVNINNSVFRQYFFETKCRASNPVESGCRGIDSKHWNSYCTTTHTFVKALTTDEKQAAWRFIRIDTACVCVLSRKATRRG
Protocol: as §1

[6] = molecular target: T1, human NGF protein (Sino biological, …); assay: as above
Protocol: as §1

[7] = molecular target: T4, murine RANKL (R&D Systems, 462-TR/CF) (murine, UniProt O35235 72-316, limits assumed); assay: as above
T4 construct: Bought protein
T4 sequence (looked up): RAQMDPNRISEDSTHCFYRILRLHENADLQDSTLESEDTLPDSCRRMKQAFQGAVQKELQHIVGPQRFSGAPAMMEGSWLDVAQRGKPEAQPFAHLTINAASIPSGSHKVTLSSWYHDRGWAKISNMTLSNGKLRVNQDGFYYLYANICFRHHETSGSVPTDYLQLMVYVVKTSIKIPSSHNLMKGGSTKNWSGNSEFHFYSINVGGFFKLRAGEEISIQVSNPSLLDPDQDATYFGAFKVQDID
Protocol: as §1

[8] = molecular target: T1, human NGF protein (Sino biological, …); assay: cell-based or functional assay; remark: listed apart in the source

T1 sequence (P01138 122-241 limits assumed): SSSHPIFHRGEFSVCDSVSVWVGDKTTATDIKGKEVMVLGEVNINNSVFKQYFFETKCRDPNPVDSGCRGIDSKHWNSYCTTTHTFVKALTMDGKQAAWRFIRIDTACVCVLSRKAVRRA

B1: Tanezumab (antibody, human IgG2, kappa, V domains shown)
VH: QVQLQESGPGLVKPSETLSLTCTVSGFSLIGYDLNWIRQPPGKGLEWIGIIWGDGTTDYNSAVKSRVTISKDTSKNQFSLKLSSVTAADTAVYYCARGGYWYATSYYFDYWGQGTLVTVSS
VL: DIQMTQSPSSLSASVGDRVTITCRASQSISNNLNWYQQKPGKAPKLLIYYTSRFHSGVPSRFSGSGSGTDFTFTISSLQPEDIATYYCQQEHTLPYTFGQGTKLEIKR
notes: Control antibody; also called control anti-NGF antibody
- Kd [1]: 0.142 nM
- koff [1]: 0.000184 s⁻¹
- kon [1]: 1.29e+06 M⁻¹ s⁻¹
- TF-1 cell proliferation-inhibiting activity, fold relative to bispecific antibody 1 [2]: ~4.2 times
- IC50 [3]: 3.66 nM
- binding result [4]: no binding
- EC50 [5]: 1.15 nM
- EC50 [6]: 2.27 nM
- binding result [7]: no binding
- TF-1 cell proliferation-inhibiting activity (TF-1 cells + human NGF, Cell-titer Glo) IC50 [8]: 0.759 nM
